# Article PMC10482377, “Septum site placement in Mycobacteria – identification and characterisation of mycobacterial homologues of Escherichia coli MinD” (Microbiology, 2023)
# T1: M. tb ParB with C-terminal 6xHis-tag (M. tuberculosis, UniProt P9WIJ9 1-344)
# T1 construct: not shown: 6xHis, C-terminal, kept
# T1 sequence: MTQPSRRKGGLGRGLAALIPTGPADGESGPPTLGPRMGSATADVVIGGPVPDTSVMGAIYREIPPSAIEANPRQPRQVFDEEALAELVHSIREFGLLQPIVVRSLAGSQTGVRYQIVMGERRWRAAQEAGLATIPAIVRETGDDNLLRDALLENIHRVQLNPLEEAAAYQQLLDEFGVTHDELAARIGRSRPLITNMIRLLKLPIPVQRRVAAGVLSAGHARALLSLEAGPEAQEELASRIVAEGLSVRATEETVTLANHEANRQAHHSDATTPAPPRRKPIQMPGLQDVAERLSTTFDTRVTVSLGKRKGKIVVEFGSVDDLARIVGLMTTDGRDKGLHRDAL
# Target: T1, M. tb ParB with C-terminal 6xHis-tag
# Assay: pull-down; equimolar bait (GST-Rv1708) and prey (His-tagged) incubated O/N at 4 °C in PBS + 0.1 % Triton X-100, then GSH beads 4 h at 4 °C; washed; Western blot with anti-6xHis
# Settings: both partners purified
binder,measurement,value
"GST-Rv1708 (natural protein, also called M. tb minD; not shown: GST, N-terminal, kept) MPAGLPGQASVAVRLSCDVPPDARHHEPRPGMTDHPDTGNGIGLTGRPPRAIPDPAPRSSHGPAKVIAMCNQKGGVGKTTSTINLGAALGEYGRRVLLVDMDPQGALSAGLGVPHYELDKTIHNVLVEPRVSIDDVLIHSRVKNMDLVPSNIDLSAAEIQLVNEVGREQTLARALYPVLDRYDYVLIDCQPSLGLLTVNGLACTDGVIIPTECEFFSLRGLALLTDTVDKVRDRLNPKLDISGILITRYDPRTVNSREVMARVVERFGDLVFDTVITRTVRFPETSVAGEPITTWAPKSAGALAYRALARELIDRFGM",binding result,binds
